B1: hr2.020 (antibody, V domains shown)
VH: EVQLVQSGAEVKKPGESLKISCKGSGYRFASHWIGWVRQMPGKGLQWMGIIYPGDSDTKYSPSFQGQVTISADKSINTVYLHWTSLKASDTAVYYCARRPPHLDGGDSPIRFDHWGQGTLVTVSS
VL: QSVLTQPPSASGTPGQRVTISCSGSRSNIGSNDVYWYQQFPGTAPKLLIYRNNQRPSGVPDRFSGSKSGTSASLAISGLRSEDEADYYCATWDDRLTGVFGGGTKLTVV
B2: CV3-25 (antibody)
chain 1: QVQLVESGAEVKKPGESLKISCKGSGYTFTRYWIGWVRQMPGKGLEWMGIIYPGDSDTRYSPSFQGHVTISADKSISTAYLQWNSLKASDTAMYYCARLPQYCSNGVCQRWFDPWGQGTLVTVSS
chain 2: EIVLTQSPSSVSASVGDRVTITCRASQGISSWLAWYQQKPGKAPKLLIYAASSLQSGVPSRFSGSGSGTDFTLTISSLQPEDFATYYCQQGNSFPYTFGQGTNLEIK

Target: JL14 HR2 peptide (JL14)
Assay: peptide ELISA

Binder | EC50 [µg/mL]
B1 | 0.0351
B2 | 0.0176

From patent US20250382354A1
